{"source": "paper PMC2787996", "about": "(Biochemical and biophysical research communications, 2009)", "binders": {"B1": {"name": "dRrp6 (natural protein, UniProt Q9VFF3 1-900, looked up)", "chain": "MPRTPKRVHQEAKEESAQADQPPKKSASEDVEAFTNKGFKNAIAATKAANAFPQGTARALYLSYPGYARVMEDLTQRVVALIGNVLHSKDIKGDIKKRQPEEQFEMVQECNDVLFERITTNLDIKGGLRRNTQQVVEAQVDVMSSSTSIEPAVASPQTQGTPKAGSWNRTTGTPQRSMVSARLFTAKNIVRPQTQFREPVDNSAQNPFVPRLKEKPNSLKPLALLPEYDDAGNVQSYLHPYEFELLKFQPPEEQFQKQKPVLPALMAETELMVVDTVEKLKQALEELRQAPQIAIDVEHHSYRTFMGITCLVQMSTRSKDYIFDTLILRDDMHILNLVLTDPKKLKILHGADLDIEWLQRDLSLYIVNMFDTHRAAKALNMARLSLAYLLKHYLDLDVDKSLQLADWRMRPLPQQLVDYARQDTHFLIYVYGRMTNDLLQQHAEPGLLGSVYQQSTDVCKKRYNKPHIGPESHLDLVRKTKRSFDNRQLYALRGIFEWRDATARSEDESYGYVLPNHMMLQIAESLPREMQGILACCNPIPPLVRQQLHTLHQIVLKARDQPLVKPILEAHSSTQAALPPSTKDFSSKLYCPHDFSQLEEIRDDLPTLLKRNSTTGKLEVPNKEEVAKVDPTLAAPAMALFEKQSKPTQEEEQRWAHLRKESQTMRMPYKRYLAILPLMVQLKADQLARERSELQKRQLCPAAPTVEQNIKLEAHAIGKEDDDMYSVPLKEQLKRKHPQANVKTDPEQQPTASKRPRKDENSQTKPPVKIEPVEKVQQALGESDDEVVEVPIERQATEPPKPSPAQNNRKQKKNQFQRGFKAKNRGNHPQSSSQQVPQHKGTGNFDYKNVDFRQFKGGAQRARGTEIKQQIRGKNRPNNRNNKQFNKLFTFSNVRKEGKK"}}, "target": "T1, dDis3-FLAG (Drosophila melanogaster, UniProt Q9VC93 1-982)", "T1 sequence (looked up)": "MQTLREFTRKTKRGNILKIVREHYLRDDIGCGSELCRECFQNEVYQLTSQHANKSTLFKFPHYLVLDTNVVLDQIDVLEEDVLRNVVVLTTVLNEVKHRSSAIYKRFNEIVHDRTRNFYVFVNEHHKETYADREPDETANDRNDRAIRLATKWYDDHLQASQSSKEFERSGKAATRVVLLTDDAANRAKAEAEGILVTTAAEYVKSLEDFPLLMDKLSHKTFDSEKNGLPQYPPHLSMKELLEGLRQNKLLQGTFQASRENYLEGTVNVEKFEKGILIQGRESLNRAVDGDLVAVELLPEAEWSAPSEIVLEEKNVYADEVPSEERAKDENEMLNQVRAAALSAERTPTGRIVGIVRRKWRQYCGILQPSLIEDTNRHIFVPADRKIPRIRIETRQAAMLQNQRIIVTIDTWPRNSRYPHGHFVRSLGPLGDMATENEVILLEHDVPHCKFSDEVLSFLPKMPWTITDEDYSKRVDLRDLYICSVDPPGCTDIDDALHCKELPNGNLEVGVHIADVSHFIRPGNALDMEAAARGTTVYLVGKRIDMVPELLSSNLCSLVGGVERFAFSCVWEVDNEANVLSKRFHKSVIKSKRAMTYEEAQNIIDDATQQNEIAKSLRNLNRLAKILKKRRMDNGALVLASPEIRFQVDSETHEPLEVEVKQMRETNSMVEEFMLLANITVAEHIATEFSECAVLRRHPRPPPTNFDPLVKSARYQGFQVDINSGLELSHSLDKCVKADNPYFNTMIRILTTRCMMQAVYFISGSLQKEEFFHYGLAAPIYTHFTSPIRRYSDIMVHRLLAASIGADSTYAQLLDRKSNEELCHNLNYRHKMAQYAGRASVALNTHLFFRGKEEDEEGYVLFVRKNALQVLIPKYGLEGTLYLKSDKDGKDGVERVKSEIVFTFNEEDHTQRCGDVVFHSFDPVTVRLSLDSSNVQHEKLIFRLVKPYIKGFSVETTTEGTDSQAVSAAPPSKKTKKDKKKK", "assay": "co-IP"}
{"binder": "B1", "values": [{"measurement": "fold reduction in recovery (0.2 M Mg2+ against 0.01 M Mg2+)", "result": "~2", "unit": "fold"}]}
